Source: PMC5665175 (Immunity, 2017)

Legend:
[1] = biological target: the molecule itself; assay: ThT fluorescence of amyloid polymerisation
[2] = biological target: the molecule itself; assay: SEC
[3] = biological target: the molecule itself; assay: SDD-AGE
[4] = biological target: the molecule itself; assay: SDD-AGE; remark: listed apart in the source
[5] = biological target: the molecule itself; assay: X-ray diffraction from fibrils

Protein	binding result [3]	binding result [4]	further results
6xHis-Sumo-Imd(3-273) (domain or fragment, D. melanogaster, UniProt Q7K4Z4 3-273, looked up) KLRNLLPTIFGGKEAQNPTPVEGRLEKDAAPVDDNEPDNNNSGALALPSTAGTPTASSDLTESVLRELSDPNYNSMDVVHSANIPGTLSNVQTNNTMNVHSAQQQVVMNFSNANNLHFGSVYNFNQNLSACSSRKGSTSTAEESVASPDGKPRASATRKTVSIVAMMQSQEEPDVRLLDVVSTHLGEGWKQVMRDLGMSEGQIDQAIIDHQMHGNIREVIYQLLLQWIRSSADGVATVGRLTTLLWESQHRDCVQRMKLVWKALEKRKTNS			binding result [1]: binds
ATQGIGSIALTNSTDVTFGDKHFYEGPVTIQQFLIDNRDKWK (domain or fragment, D. melanogaster, UniProt Q9GNK5 201-242, looked up) [6xHis-Sumo-PGRP-LC(201-242) WT]			binding result [2]: binds
ATQGIGSIALTNSTAVTFGDKHFYEGPVTIQQFLIDNRDKWK (domain or fragment, D. melanogaster, UniProt Q9GNK5 201-242, looked up) [6xHis-Sumo-PGRP-LC(201-242) D215A]	binds		
ATQGIGSIALTNSTDVTFGDKHFYAGPVTIQQFLIDNRDKWK (domain or fragment, D. melanogaster, UniProt Q9GNK5 201-242, looked up) [6xHis-Sumo-PGRP-LC(201-242) E225A]	binds		
6xHis-Sumo-Imd(31-273) Δ144-177 (domain or fragment, D. melanogaster, UniProt Q7K4Z4 31-273, looked up) AAPVDDNEPDNNNSGALALPSTAGTPTASSDLTESVLRELSDPNYNSMDVVHSANIPGTLSNVQTNNTMNVHSAQQQVVMNFSNANNLHFGSVYNFNQNLSACSSRKGSTSTARLLDVVSTHLGEGWKQVMRDLGMSEGQIDQAIIDHQMHGNIREVIYQLLLQWIRSSADGVATVGRLTTLLWESQHRDCVQRMKLVWKALEKRKTNS		binds	
6xHis-Sumo-Imd(31-167) (domain or fragment, D. melanogaster, UniProt Q7K4Z4 31-167, looked up) AAPVDDNEPDNNNSGALALPSTAGTPTASSDLTESVLRELSDPNYNSMDVVHSANIPGTLSNVQTNNTMNVHSAQQQVVMNFSNANNLHFGSVYNFNQNLSACSSRKGSTSTAEESVASPDGKPRASATRKTVSIVA		binds	
6xHis-Sumo-Imd(31-273) Δ114-121 (domain or fragment, D. melanogaster, UniProt Q7K4Z4 31-273, looked up) AAPVDDNEPDNNNSGALALPSTAGTPTASSDLTESVLRELSDPNYNSMDVVHSANIPGTLSNVQTNNTMNVHSAQQQVVMNFSSVYNFNQNLSACSSRKGSTSTAEESVASPDGKPRASATRKTVSIVAMMQSQEEPDVRLLDVVSTHLGEGWKQVMRDLGMSEGQIDQAIIDHQMHGNIREVIYQLLLQWIRSSADGVATVGRLTTLLWESQHRDCVQRMKLVWKALEKRKTNS		binds	
NVHSAQQQVVMNFSNANNLHFGSVYN (domain or fragment, D. melanogaster, UniProt Q7K4Z4 100-125, looked up) [6xHis-Sumo-Imd(100-125)]			binding result [5]: binds
6xHis-Sumo-Imd(31-273) (domain or fragment, D. melanogaster, UniProt Q7K4Z4 31-273, looked up) AAPVDDNEPDNNNSGALALPSTAGTPTASSDLTESVLRELSDPNYNSMDVVHSANIPGTLSNVQTNNTMNVHSAQQQVVMNFSNANNLHFGSVYNFNQNLSACSSRKGSTSTAEESVASPDGKPRASATRKTVSIVAMMQSQEEPDVRLLDVVSTHLGEGWKQVMRDLGMSEGQIDQAIIDHQMHGNIREVIYQLLLQWIRSSADGVATVGRLTTLLWESQHRDCVQRMKLVWKALEKRKTNS		binds	
DLMNSINSIQTLGNVNISNSTNVHIGNVTNINGNIQIIADGLTQNRRD (domain or fragment, D. melanogaster, UniProt Q9VXN9 80-127, looked up) [6xHis-Sumo-PGRP-LE(80-127) WT]	binds		
DLMNSINSIQTLGNVNISNATNVHIGNVTNINGNIQIIADGLTQNRRD (domain or fragment, D. melanogaster, UniProt Q9VXN9 80-127, looked up) [6xHis-Sumo-PGRP-LE(80-127) S99A]	binds		
DLMNSINSIQTLGNVNASNSTNVHIGNVTNINGNIQIIADGLTQNRRD (domain or fragment, D. melanogaster, UniProt Q9VXN9 80-127, looked up) [6xHis-Sumo-PGRP-LE(80-127) I96A]	binds		
DLMNSINSIQTLGNVNISNSTNVHAGNVTNINGNIQIIADGLTQNRRD (domain or fragment, D. melanogaster, UniProt Q9VXN9 80-127, looked up) [6xHis-Sumo-PGRP-LE(80-127) I104A]	binds		
DLMNSINSIQTLGNVNISNSTNVHIGNVTNINGNIQAIADGLTQNRRD (domain or fragment, D. melanogaster, UniProt Q9VXN9 80-127, looked up) [6xHis-Sumo-PGRP-LE(80-127) I116A]	binds		
6xHis-Sumo-Imd(31-273) Δ76-109 (domain or fragment, D. melanogaster, UniProt Q7K4Z4 31-273, looked up) AAPVDDNEPDNNNSGALALPSTAGTPTASSDLTESVLRELSDPNYMNFSNANNLHFGSVYNFNQNLSACSSRKGSTSTAEESVASPDGKPRASATRKTVSIVAMMQSQEEPDVRLLDVVSTHLGEGWKQVMRDLGMSEGQIDQAIIDHQMHGNIREVIYQLLLQWIRSSADGVATVGRLTTLLWESQHRDCVQRMKLVWKALEKRKTNS		binds	
